Assay results from patent US20240270813A1 (UNIVERSITY OF PITTSBURGH OF THE COMMONWEALTH SYSTEM OF …, published 2024).
Numbering of substitutions follows the chain as printed. Values joined by “and” are separate entries in the source; they are usually repeats but may differ in a detail not shown here. Equal entries are not always repeated.

B1: TCR A (TCR, V domains shown)
Valpha: AQSVAQPEDQVNVAEGNPLTVKCTYSVSGNPYLFWYVQYPNRGLQFLLKYITGDNLVKGSYGFEAEFNKSQTSFHLKKPSALVSDSALYFCAVRGGSYKYIFGTGTRLKVLA
Vbeta: DTGVSQDPRHKITKRGQNVTFRCDPISEHNRLYWYRQTLGQGPEFLTYFQNEAQLEKSRLLSDRFSAERPKGSFSTLEIQRTEQGDSAMYLCASTPGTVYNEQFFGPGTRLTVL
B2: TCR C (TCR, V domains shown)
Valpha: KQEVTQIPAALSVPEGENLVLNCSFTDSAIYNLQWFRQDPGKGLTSLLLIQSSQREQTSGRLNASLDKSSGRSTLYIAASQPGDSATYLCAVRPRTSGTYKYIFGTGTRLKVLA
Vbeta: DTGVSQDPRHKITKRGQNVTFRCDPISEHNRLYWYRQTLGQGPEFLTYFQNEAQLEKSRLLSDRFSAERPKGSFSTLEIQRTEQGDSAMYLCASTELSGNTIYFGEGSWLTVV
B3: TCR B (TCR, V domains shown)
Valpha: SQQGEEDPQALSIQEGENATMNCSYKTSINNLQWYRQNSGRGLVHLILIRSNEREKHSGRLRVTLDTSKKSSSLLITASRAADTASYFCATAPGSGTYKYIFGTGTRLKVLA
Vbeta: DTGVSQDPRHKITKRGQNVTFRCDPISEHNRLYWYRQTLGQGPEFLTYFQNEAQLEKSRLLSDRFSAERPKGSFSTLEIQRTEQGDSAMYLCAAPPDTYNSPLHFGNGTRLTVT
B4: TCR G (TCR, V domains shown)
Valpha: SQQGEEDPQALSIQEGENATMNCSYKTSINNLQWYRQNSGRGLVHLILIRSNEREKHSGRLRVTLDTSKKSSSLLITASRAADTASYFCAGTGANNLFFGTGTRLTVIP
Vbeta: DTGVSQDPRHKITKRGQNVTFRCDPISEHNRLYWYRQTLGQGPEFLTYFQNEAQLEKSRLLSDRFSAERPKGSFSTLEIQRTEQGDSAMYLCASSLIRGETQYFGPGTRLLVL
B5: TCR H (TCR, V domains shown)
Valpha: GENVEQHPSTLSVQEGDSAVIKCTYSDSASNYFPWYKQELGKRPQLIIDIRSNVGEKKDQRIAVTLNKTAKHFSLHITETQPEDSAVYFCAAPLAGGGADGLTFGKGTHLIIQP
Vbeta: DTGVSQDPRHKITKRGQNVTFRCDPISEHNRLYWYRQTLGQGPEFLTYFQNEAQLEKSRLLSDRFSAERPKGSFSTLEIQRTEQGDSAMYLCASSTTLITGYTFGSGTRLTVV
B6: TCR I (TCR, V domains shown)
Valpha: B2 Valpha with P94G, R95T
Vbeta: B4 Vbeta with L96F, I97L, R98A
B7: TCR J (TCR, V domains shown)
Valpha: QKEVEQDPGPLSVPEGAIVSLNCTYSNSAFQYFMWYRQYSRKGPELLMYTYSSGNKEDGRFTAQVDKSSKYISLFIRDSQPSDSATYLCAMRATSGTYKYIFGTGTRLKVLA
Vbeta: B1 Vbeta with S94V, T95P, P96G, T98S, V99S
B8: TCR K (TCR, V domains shown)
Valpha: DAKTTQPNSMESNEEEPVHLPCNHSTISGTDYIHWYRQLPSQGPEYVIHGLTSNVNNRMASLAIAEDRKSSTLILHRATLRDAAVYYCILRAGSGTYKYIFGTGTRLKVLA
Vbeta: B1 Vbeta with T95S
B9: TCR L (TCR, V domains shown)
Valpha: KQEVTQIPAALSVPEGENLVLNCSFTDSAIYNLQWFRQDPGKGLTSLLLIQSSQREQTSGRLNASLDKSSGRSTLYIAASQPGDSATYLCAVTRTGANNLFFGTGTRLTVIP
Vbeta: DTGVSQDPRHKITKRGQNVTFRCDPISEHNRLYWYRQTLGQGPEFLTYFQNEAQLEKSRLLSDRFSAERPKGSFSTLEIQRTEQGDSAMYLCASSLGVLGIGYTFGSGTRLTVV
B10: TCR M (TCR, V domains shown)
Valpha: B2 Valpha with P94G, R95S
Vbeta: B4 Vbeta with I97V, R98A
B11: TCR N (TCR, V domains shown)
Valpha: GENVEQHPSTLSVQEGDSAVIKCTYSDSASNYFPWYKQELGKRPQLIIDIRSNVGEKKDQRIAVTLNKTAKHFSLHITETQPEDSAVYFCAAIVGNQFYFGTGTSLTVIP
Vbeta: B4 Vbeta with L96E, I97T, R98T, G99L, E100S, T101E, Y103F, L111T
B12: TCR O (TCR, V domains shown)
Valpha: B11 Valpha with A92M, I93R, V94N, G95N, Q97D, F98M, Y99R, T102A, S105R, I109K
Vbeta: B4 Vbeta with I97T, R98T, G99L, E100D, L111T
B13: TCR P (TCR, V domains shown)
Valpha: AQSVSQHNHHVILSEAASLELGCNYSYGGTVNLFWYVQYPGQHLQLLLKYFSGDPLVKGIKGFEAEFIKSKFSFNLRKPSVQWSDTAEYFCAVRDSGAGSYQLTFGKGTKLSVIP
Vbeta: B1 Vbeta with T95L, P96T
B14: TCR Q (TCR, V domains shown)
Valpha: GENVEQHPSTLSVQEGDSAVIKCTYSDSASNYFPWYKQELGKRPQLIIDIRSNVGEKKDQRIAVTLNKTAKHFSLHITETQPEDSAVYFCAASNPTGANSKLTFGKGITLSVRP
Vbeta: B4 Vbeta with I97V, G99N, T101K, Q102L, Y103F, P106S, R109Q, L111S
B15: TCR R (TCR, V domains shown)
Valpha: SQQGEEDPQALSIQEGENATMNCSYKTSINNLQWYRQNSGRGLVHLILIRSNEREKHSGRLRVTLDTSKKSSSLLITASRAADTASYFCATEMNSNYQLIWGAGTKLIIKP
Vbeta: DTGVSQDPRHKITKRGQNVTFRCDPISEHNRLYWYRQTLGQGPEFLTYFQNEAQLEKSRLLSDRFSAERPKGSFSTLEIQRTEQGDSAMYLCASSPLKGSNYGYTFGSGTRLTVV
B16: TCR S (TCR, V domains shown)
Valpha: DAKTTQPPSMDCAEGRAANLPCNHSTISGNEYVYWYRQIHSQGPQYIIHGLKNNETNEMASLIITEDRKSSTLILPHATLRDTAVYYCIVRASTSGTYKYIFGTGTRLKVLA
Vbeta: B1 Vbeta with T95S
B17: TCR T (TCR, V domains shown)
Valpha: SQQGEEDPQALSIQEGENATMNCSYKTSINNLQWYRQNSGRGLVHLILIRSNEREKHSGRLRVTLDTSKKSSSLLITASRAADTASYFCATPSGNTPLVFGKGTRLSVIA
Vbeta: B1 Vbeta with F45L, T95S, P96Q, G97L, T98A, V99G, Y100V, N101I

Target: T1, minor histocompatibility antigen HA-1, immunogenic H variant peptide on HLA-A*02:01 (human)
T1 peptide: VLHDDLLEA
Experiment: multimer staining
B1: recognises.
B2: recognises.

Target: T1, minor histocompatibility antigen HA-1, …
Experiment: CD69 on TCR-transduced Jurkat J.RT3-T3.5-CD8; overnight with A*0201 LCLs (1:1) and titrated HA-1 H peptide; given as a range, upper bound given; full-length, on cells
For B3, the EC50 of peptide was ≤ 100 ng/mL and ≤ 100 nM.
B4 was tested, and the EC50 of peptide was ≤ 100 ng/mL and ≤ 100 nM.
With B5 the EC50 of peptide was ≤ 100 ng/mL and ≤ 100 nM.
In the case of B6, the EC50 of peptide is reported as ≤ 100 ng/mL and ≤ 100 nM.
For B7, the EC50 of peptide was ≤ 100 ng/mL and ≤ 100 nM.
With B8 the EC50 of peptide was ≤ 100 ng/mL and ≤ 100 nM.
With B9 the EC50 of peptide was ≤ 100 ng/mL and ≤ 100 nM.
B10 was tested, and the EC50 of peptide was ≤ 100 ng/mL and ≤ 100 nM.
With B11 the EC50 of peptide was ≤ 100 ng/mL and ≤ 100 nM.
For B12, the EC50 of peptide was ≤ 100 ng/mL and ≤ 100 nM.
With B13 the EC50 of peptide was ≤ 100 ng/mL and ≤ 100 nM.
With B14 the EC50 of peptide was ≤ 1000 ng/mL and ≤ 1 µM.
For B15, the EC50 of peptide was ≤ 1000 ng/mL and ≤ 1 µM.
With B16 the EC50 of peptide was ≤ 1000 ng/mL and ≤ 1 µM.
For B17, the EC50 of peptide was ≤ 1000 ng/mL and ≤ 1 µM.
